What was measured:
[1] = Western blot of overexpressed LRP6; conditions: glycan changed form; control: wild-type HEK293T cells
[2] = cell-surface HiBiT/LgBiT luminescence to mCherry ratio; conditions: glycan changed form; control: HiBiT-LRP6-mCherry alone

B1: LRP6: B3GnT2−/− (protein)
parent chain: MGAVLRSLLACSFCVLLRAAPLLLYANRRDLRLVDATNGKENATIVVGGLEDAAAVDFVFSHGLIYWSDVSEEAIKRTEFNKTESVQNVVVSGLLSPDGLACDWLGEKLYWTDSETNRIEVSNLDGSLRKVLFWQELDQPRAIALDPSSGFMYWTDWGEVPKIERAGMDGSSRFIIINSEIYWPNGLTLDYEEQKLYWADAKLNFIHKSNLDGTNRQAVVKGSLPHPFALTLFEDILYWTDWSTHSILACNKYTGEGLREIHSDIFSPMDIHAFSQQRQPNATNPCGIDNGGCSHLCLMSPVKPFYQCACPTGVKLLENGKTCKDGATELLLLARRTDLRRISLDTPDFTDIVLQLEDIRHAIAIDYDPVEGYIYWTDDEVRAIRRSFIDGSGSQFVVTAQIAHPDGIAVDWVARNLYWTDTGTDRIEVTRLNGTMRKILISEDLEEPRAIVLDPMVGYMYWTDWGEIPKIERAALDGSDRVVLVNTSLGWPNGLALDYDEGKIYWGDAKTDKIEVMNTDGTGRRVLVEDKIPHIFGFTLLGDYVYWTDWQRRSIERVHKRSAEREVIIDQLPDLMGLKATNVHRVIGSNPCAEENGGCSHLCLYRPQGLRCACPIGFELISDMKTCIVPEAFLLFSRRADIRRISLETNNNNVAIPLTGVKEASALDFDVTDNRIYWTDISLKTISRAFMNGSALEHVVEFGLDYPEGMAVDWLGKNLYWADTGTNRIEVSKLDGQHRQVLVWKDLDSPRALALDPAEGFMYWTEWGGKPKIDRAAMDGSERTTLVPNVGRANGLTIDYAKRRLYWTDLDTNLIESSNMLGLNREVIADDLPHPFGLTQYQDYIYWTDWSRRSIERANKTSGQNRTIIQGHLDYVMDILVFHSSRQSGWNECASSNGHCSHLCLAVPVGGFVCGCPAHYSLNADNRTCSAPTTFLLFSQKSAINRMVIDEQQSPDIILPIHSLRNVRAIDYDPLDKQLYWIDSRQNMIRKAQEDGSQGFTVVVSSVPSQNLEIQPYDLSIDIYSRYIYWTCEATNVINVTRLDGRSVGVVLKGEQDRPRAVVVNPEKGYMYFTNLQERSPKIERAALDGTEREVLFFSGLSKPIALALDSRLGKLFWADSDLRRIESSDLSGANRIVLEDSNILQPVGLTVFENWLYWIDKQQQMIEKIDMTGREGRTKVQARIAQLSDIHAVKELNLQEYRQHPCAQDNGGCSHICLVKGDGTTRCSCPMHLVLLQDELSCGEPPTCSPQQFTCFTGEIDCIPVAWRCDGFTECEDHSDELNCPVCSESQFQCASGQCIDGALRCNGDANCQDKSDEKNCEVLCLIDQFRCANGQCIGKHKKCDHNVDCSDKSDELDCYPTEEPAPQATNTVGSVIGVIVTIFVSGTVYFICQRMLCPRMKGDGETMTNDYVVHGPASVPLGYVPHPSSLSGSLPGMSRGKSMISSLSIMGGSSGPPYDRAHVTGASSSSSSSTKGTYFPAILNPPPSPATERSHYTMEFGYSSNSPSTHRSYSYRPYSYRHFAPPTTPCSTDVCDSDYAPSRRMTSVATAKGYTSDLNYDSEPVPPPPTPRSQYLSAEENYESCPPSPYTERSYSHHLYPPPPSPCTDSS
In the case of B1, the expression_or_secretion [1] is reported as “increases”.

B2: LRP6: hB3GnT2 co-expression (protein)
parent chain: B1 parent chain
For B2, the “localisation_or_trafficking, fold_change” value [2] was “increases”.

From publication PMC10047360
